The target in experiment [1] is GST-ATG12-5–16L1β complex (human, UniProt O94817 1-140; Q9H1Y0 1-275; Q676U5 1-607). Put plainly: pull-down.
Experiment [2] concerns the target ATG16L1β (full-length human ATG16L1, β isoform) (human, UniProt Q676U5 1-607). The experiment is described as follows: tandem affinity co-purification.

Sequence of GST-ATG12-5–16L1β complex (Q676U5 whole entry, canonical isoform, one chain of several): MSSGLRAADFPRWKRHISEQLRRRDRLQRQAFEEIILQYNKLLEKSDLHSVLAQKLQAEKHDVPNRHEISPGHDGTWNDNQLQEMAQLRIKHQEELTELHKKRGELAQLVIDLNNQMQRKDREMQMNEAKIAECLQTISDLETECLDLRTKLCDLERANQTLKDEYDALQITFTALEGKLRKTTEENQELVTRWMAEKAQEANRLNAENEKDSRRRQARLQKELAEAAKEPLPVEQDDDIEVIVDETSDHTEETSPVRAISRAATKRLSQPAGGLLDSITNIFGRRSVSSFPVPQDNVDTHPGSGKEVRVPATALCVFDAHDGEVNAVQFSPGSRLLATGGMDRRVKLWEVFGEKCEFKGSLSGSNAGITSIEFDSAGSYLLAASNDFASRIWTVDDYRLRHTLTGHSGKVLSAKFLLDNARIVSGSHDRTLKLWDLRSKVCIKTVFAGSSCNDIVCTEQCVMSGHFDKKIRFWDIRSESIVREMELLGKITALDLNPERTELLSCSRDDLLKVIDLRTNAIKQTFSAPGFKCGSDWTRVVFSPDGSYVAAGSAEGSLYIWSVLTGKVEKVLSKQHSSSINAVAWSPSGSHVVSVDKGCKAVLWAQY
Sequence of ATG16L1β (full-length human ATG16L1, β isoform) (Q676U5 whole entry, canonical isoform): as the sequence (Q676U5 whole entry, canonical isoform, one chain of several) above

B1: ATG3 WT (enzyme)
chain: not shown
Take B1: the binding result in experiment [1] is listed as “binds”.

B2: ATG12–ATG5 conjugate (GST-ATG12 with untagged ATG5) (complex, human)
chain 1: MAEEPQSVLQLPTSIAAGGEGLTDVSPETTTPEPPSSAAVSPGTEEPAGDTKKKIDILLKAVGDTPIMKTKKWAVERTRTIQGLIDFIKKFLKLVASEQLFIYVNQSFAPSPDQEVGTLYECFGSDGKLVLHYCKSQAWG
chain 2: MTDDKDVLRDVWFGRIPTCFTLYQDEITEREAEPYYLLLPRVSYLTLVTDKVKKHFQKVMRQEDISEIWFEYEGTPLKWHYPIGLLFDLLASSSALPWNITVHFKSFPEKDLLHCPSKDAIEAHFMSCMKEADALKHKSQVINEMQKKDHKQLWMGLQNDRFDQFWAINRKLMEYPAEENGFRYIPFRIYQTTTERPFIQKLFRPVAADGQLHTLGDLLKEVCPSAIDPEDGEKKNQVMIHGIEPMLETPLQWLSEHLSYPDNFLHISIIPQPTD
On to B2, for which the binding result in experiment [2] is “binds”.

Source of the values: publication PMC7032593 (Nature cell biology, 2019).
